# Measurements published in patent US20060217308A1, “Compositions for the treatment of tumor pathologies, comprising internalin B (ln1B) of Listeria monocytogene protein or a fragment thereof” (priority 2005, published 2006).
# Experiments:
# [1] = system: Met; assay: In1B-induced ubiquitination of Met (anti-Met immunoprecipitation, anti-ubiquitin blot) in HeLa cells; format: cell-based, human
# Description: (A) Listeria monocytogenes EGD (BUG600) (MOI 25) or purified In1B (5 nM) were added (+) for two minutes to HeLa cells. Samples were immunoprecipitated against Met and blotted against ubiquitin using P4D1 monoclonal antibody. (B) In1B was added to HeLa cells for two minutes and samples were re-immunoprecipitated against Met. Samples were blotted against ubiquitin (Ub) or Met. (C) Increasing amounts of In1B were added to HeLa cells (1 to 6 corresponding to 0, 0.22, 0.44, 0.88, 1.75, […], 5 nM respectively) for two minutes. Extracts were immunoprecipitated against Met and blotted against Met or ubiquitin (Ub). (D) As C, but 1 to 6 correspond to 0, 3.5, 10, 20, 40, 80 nM In1B, respectively. (E) 5 nm of purified In1B was added to HeLa cells for the indicated times. Cell extracts were immunoprecipitated (IP) against Met and blotted (WB) against Met or ubiquitin (Ub). At the left of all panels the molecular weight markers are indicated in kDa. In C and D, 8% acrylamide gels were used, while 10% acrylamide gels were used in A, B, and E.
# Cells, bacteria and growth conditions. The human cell line used was HeLa (ATCC number CCL-2) grown as recommended by ATCC. Typically, cells were serum starved for three hours before the addition of In1B. The bacterial strains used were Listeria monocytogenes BUG600 and BUG1461. They were grown in BHI medium, which in the case […] contained 5 μg/ml of erythromycin.
# Assays. Immunoprecipitation, Re-immunoprecipitation, and immunoblots were performed as described before (31). In1B purification was performed as described (54).
# It has been previously described that the ubiquitin ligase Cbl is recruited to the Met complex during the first minute after cell treatment with soluble In1B (31). Whether Listeria infection promotes ubiquitination of Met was studied. Epithelial HeLa cells were infected with Listeria monocytogenes (at a m.o.i. 25) or treated with purified In1B (5 nM) (FIG. 1A) for two minutes. Cellular extracts were immunoprecipitated using an antibody that recognizes Met and ubiquitination of immunoprecipitated proteins was tested with an anti-ubiquitin antibody. A clear increase in the amount of ubiquitinated proteins associated with Met was detected after infection with Listeria.
# To assess whether the signal observed after In1B treatment corresponded to Met ubiquitination, a re-immunoprecipitation assay was performed. Anti-Met immunoprecipitates from cells samples treated (or not) with In1B were denatured (boiled in presence of 1% SDS), to dissociate Met complexes, and re-immunoprecipitated using anti-Met antibodies. The resulting samples were immunoblotted against ubiquitin (FIG. 1B left panel) and Met (FIG. 1B right panel). Ubiquitin was only detectable in the lane corresponding to In1B treated samples, whereas Met was present in both lanes corresponding to In1B-treated or non-treated samples.
# In order to determine the minimal amount of In1B necessary to trigger Met ubiquitination, HeLa cells were treated with increasing amount of In1B for two minutes. Cell extracts were then immunoprecipitated using the anti-Met antibody and blotted with anti ubiquitin or anti Met antibodies (FIGS. 1C and 1D). 1.75 nM of In1B was sufficient to induce ubiquitination of Met. […] Note that ubiquitinated Met migrated slower and than non-ubiquitinated in 8% acrylamide SDS-PAGE gels (FIGS. 1C and 1D), in agreement with an increase in apparent molecular weight of ubiquitinated proteins. Again, Met detection was always weaker after ubiquitination, supporting the previous observation that ubiquitination of Met was leading to Met degradation.
# Next, the kinetics of In1B-dependent ubiquitination of Met were tested. In1B (5 nM) was added during increasing time periods to HeLa cells and cell extracts were immunoprecipitated using anti-Met antibodies (FIG. 1E). In1B-induced ubiquitination was maximal two minutes after treatment and declined thereafter. […]
# [2] = system: Met; assay: Kinetics of phosphorylation of Met after In1B (IP Met, blot phospho-tyrosine); format: cell-based, human; conditions: HeLa cells, In1B 5 nM (FIG. 8)
# Description: FIG. 8 depicts the kinetics of phosphorylation and ubiquitination of Met. 5 nm of purified In1B was added to HeLa cells for the indicated times. Cell extracts were immunoprecipitated (IP) against Met and blotted (WB) against phospho-tyrosine (P-Tyr), Met or ubiquitin (Ub).
# Ligand-induced ubiquitination of RTKs is preceded by phosphorylation of the receptor, which is then recognized and ubiquitinated by the ubiquitin ligase Cbl (33). As previously shown (27), In1B rapidly stimulates Met phosphorylation and the kinetics of ubiquitination of Met follows that of phosphorylation with a maximum at two minutes after stimulation (FIG. 8).
# Chain of Met (P08581 25-1390): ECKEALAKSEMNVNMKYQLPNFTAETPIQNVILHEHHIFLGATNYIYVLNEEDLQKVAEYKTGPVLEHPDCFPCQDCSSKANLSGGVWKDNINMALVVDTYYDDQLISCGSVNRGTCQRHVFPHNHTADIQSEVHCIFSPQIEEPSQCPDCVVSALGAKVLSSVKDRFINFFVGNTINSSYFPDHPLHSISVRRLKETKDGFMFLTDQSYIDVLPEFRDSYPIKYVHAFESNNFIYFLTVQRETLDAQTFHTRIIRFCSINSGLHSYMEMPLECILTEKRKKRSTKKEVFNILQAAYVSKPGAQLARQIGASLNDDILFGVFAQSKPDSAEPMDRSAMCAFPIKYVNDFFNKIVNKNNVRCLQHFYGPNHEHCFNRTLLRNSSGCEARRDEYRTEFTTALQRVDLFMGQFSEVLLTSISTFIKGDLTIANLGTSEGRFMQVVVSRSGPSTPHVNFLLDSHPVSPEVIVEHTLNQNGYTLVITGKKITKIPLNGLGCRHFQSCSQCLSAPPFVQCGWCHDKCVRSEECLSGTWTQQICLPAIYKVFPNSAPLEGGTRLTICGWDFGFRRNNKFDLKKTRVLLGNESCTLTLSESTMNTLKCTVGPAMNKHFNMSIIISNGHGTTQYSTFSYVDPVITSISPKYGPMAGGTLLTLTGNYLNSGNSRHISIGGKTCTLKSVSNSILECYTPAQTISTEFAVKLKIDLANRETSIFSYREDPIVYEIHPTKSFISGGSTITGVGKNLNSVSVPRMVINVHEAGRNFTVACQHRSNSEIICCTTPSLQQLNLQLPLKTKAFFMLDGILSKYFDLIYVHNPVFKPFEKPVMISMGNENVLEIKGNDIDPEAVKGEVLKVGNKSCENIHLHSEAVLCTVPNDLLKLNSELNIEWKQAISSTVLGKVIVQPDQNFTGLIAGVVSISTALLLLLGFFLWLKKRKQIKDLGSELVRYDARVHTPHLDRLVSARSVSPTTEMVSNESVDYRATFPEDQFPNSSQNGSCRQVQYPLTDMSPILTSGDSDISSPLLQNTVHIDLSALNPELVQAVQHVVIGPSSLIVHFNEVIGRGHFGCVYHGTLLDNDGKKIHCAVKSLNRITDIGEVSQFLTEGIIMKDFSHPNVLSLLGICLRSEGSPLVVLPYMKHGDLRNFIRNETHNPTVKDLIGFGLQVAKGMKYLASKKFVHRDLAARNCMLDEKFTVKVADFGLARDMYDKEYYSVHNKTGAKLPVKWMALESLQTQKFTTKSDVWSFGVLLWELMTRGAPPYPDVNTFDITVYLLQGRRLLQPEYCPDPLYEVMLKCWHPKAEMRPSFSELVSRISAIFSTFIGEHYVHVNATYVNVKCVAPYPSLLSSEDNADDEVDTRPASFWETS
molecule,measurement,setting,value
"In1B: Listeria monocytogenes surface protein of the internalin family that interacts with Met; purified soluble protein (protein, UniProt P0DQD2 31-630, looked up) Internalin B: AKVQAETITVPTPIKQIFSDDAFAETIKDNLKKKSVTDAVTQNELNSIDQIIANNSDIKSVQGIQYLPNVTKLFLNGNKLTDIKPLANLKNLGWLFLDENKVKDLSSLKDLKKLKSLSLEHNGISDINGLVHLPQLESLYLGNNKITDITVLSRLTKLDTLSLEDNQISDIVPLAGLTKLQNLYLSKNHISDLRALAGLKNLDVLELFSQECLNKPINHQSNLVVPNTVKNTDGSLVTPEIISDDGDYEKPNVKWHLPEFTNEVSFIFYQPVTIGKAKARFHGRVTQPLKEVYTVSYDVDGTVIKTKVEAGTRITAPKPPTKQGYVFKGWYTEKNGGHEWNFNTDYMSGNDFTLYAVFKAETTEKAVNLTRYVKYIRGNAGIYKLPREDNSLKQGTLASHRCKALTVDREARNGGKLWYRLKNIGWTKAENLSLDRYDKMEYDKGVTAYARVRNASGNSVWTKPYNTAGAKHVNKLSVYQGKNMRILREAKTPITTWYQFSIGGKVIGWVDTRALNTFYKQSMEKPTRLTRYVSANKAGESYYKVPVADNPVKRGTLAKYKNQKLIVDCQATIEGQLWYRIRTSSTFIGWTKAANLRAQK",time of maximal In1B-induced ubiquitination of Met,[1]; In1B 5 nM,two
same,time of new wave of Met ubiquitination after addition of In1B,[1]; In1B 5 nM,30 min
same,time at which a new band corresponding to Met appeared after addition of In1B,"[1]; In1B 5 nM, anti-Met blot of immunoprecipitates",15 min
same,ubiquitination of Met after In1B treatment (re-immunoprecipitation assay),"[1]; In1B two minutes, re-immunoprecipitated anti-Met, blot anti-ubiquitin",induces the ubiquitination of Met
same,minimal amount of In1B necessary to trigger Met ubiquitination,[1]; increasing amount of In1B for two minutes,1.75 nM
same,Met ubiquitination using higher amount of In1B,"[1]; two minutes, 3.5 to 80 nM In1B (FIG. 1D)",did not significantly increase
same,time of maximum of Met phosphorylation and ubiquitination after stimulation,[2],two
